Patent US20080138330

Target: RTEF-1 (TEAD4) (Homo sapiens) (UniProt Q15561)
Assay: cell_activity

Chain of RTEF-1 (TEAD4) (Homo sapiens) (Q15561 other isoform, or with tags, fused parts or gaps): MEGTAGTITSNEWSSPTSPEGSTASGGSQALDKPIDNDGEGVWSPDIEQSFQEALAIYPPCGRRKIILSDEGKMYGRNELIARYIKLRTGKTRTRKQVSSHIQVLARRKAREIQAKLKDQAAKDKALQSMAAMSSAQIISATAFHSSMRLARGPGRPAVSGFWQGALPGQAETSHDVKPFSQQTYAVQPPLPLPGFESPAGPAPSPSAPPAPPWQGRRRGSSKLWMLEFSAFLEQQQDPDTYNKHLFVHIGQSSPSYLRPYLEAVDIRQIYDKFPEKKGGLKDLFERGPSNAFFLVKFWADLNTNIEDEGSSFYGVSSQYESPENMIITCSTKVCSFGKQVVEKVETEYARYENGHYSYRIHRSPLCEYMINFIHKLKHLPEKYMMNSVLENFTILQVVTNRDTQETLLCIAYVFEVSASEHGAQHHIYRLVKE

| Substance | activity (luciferase in BAEC) | activity (luciferase, +/-0.3, 2.7 +/-0.2 fold in hypoxia) |
| --- | --- | --- |
| FGFR1 0.15 kb promoter (-48/+94) | > 3 fold |  |
| VEGF 0.35 promoter (-194/+157) |  | 2.2 fold |
